Data from PMC3107778.

Tests used:
[1] = molecular target: YqiC of Salmonella enterica serovar Typhimurium (Salmonella enterica serovar Typhimurium ATCC 14028); assay: cross-linking; purified YqiC with ethylene glycol bis(succinimidylsuccinate) (EGS) at 0.5, 1.0 and 5.0 mM, 30 min at room temperature in phosphate-buffered saline, stopped with 50 mM Tris-HCl pH 8.0; products on 15% SDS-PAGE, Coomassie staining
[2] = molecular target: YqiC of Salmonella enterica serovar Typhimurium (Salmonella enterica serovar Typhimurium ATCC 14028); assay: SEC-MALS; static light scattering (90°) and refractive index coupled to a Superdex 75 column; eluted with PBS (methods) or 50 mM Tris-HCl, 150 mM NaCl pH 8; calibrated with BSA; single homogeneous peak

## YqiC of Salmonella enterica serovar Typhimurium (from UniProt A0A2X4T3G4 1-98) (natural protein)
[1]
  stoichiometry N: 3
[2]
  stoichiometry N: 3
